Assay results as given in the supplement of paper PMC7125110.
± gives the standard error. Variants at the floor of the assay were thinned out.

B1: glmS ribozyme (parent)
chain: AUAAAAGCGCCAGAACUACAGAAAUGUAGUUGACGAGGAGGAGGUUUAUCGAAUUUUCGGCGGAUGCCUCCAAA

Tests used:
[1] = variants of: B1; assay: self-cleavage kobs at 640 uM GlcN6P; higher = faster cleavage; RNA array; details: with glucosamine-6-phosphate
How it was run: (§1)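 Glucosamine-6-phosphate (40 μM to 10 mM) in HEPES/KCl/Mg(OAc)2 buffer was flowed over sequenced MiSeq chips, and tiles were imaged over ~14 h. Barcoded ribozyme variants there had been transcribed in situ by E. coli RNA polymerase and were tracked through a hybridised Cy3 probe at 37 °C. One- or two-exponential decay fits to per-tile medians, normalised to baseline and to non-cleaving reference variants, gave kobs. kcat and KM came from weighted Michaelis–Menten fits across concentrations.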

[2] = variants of: B1; assay: self-cleavage kobs at 2500 uM GlcN6P; higher = faster cleavage; RNA array; details: with glucosamine-6-phosphate
How it was run: as §1

AUAAAAGCGCCACAACUACAGAAAUGUAGUUGACGAGGACGCGGUUUAUCGAAUUUUCGGCGGAUGCCUCCAAA [G13C G40C A42C]
self-cleavage kobs at 640 uM GlcN6P [1]: < 1e-05 s⁻¹ | self-cleavage kobs at 2500 uM GlcN6P [2]: < 1e-05 s⁻¹

AUAAAAGCGCCAGAACUACAUAAAUGUAGUUGACGAGGAGGAGGUUUAUCGAAUUUUCGGCGGAUGCCGCCAAA [G21U U69G]
self-cleavage kobs at 640 uM GlcN6P [1]: 6.25e-05 ± 1.4e-05 s⁻¹ | self-cleavage kobs at 2500 uM GlcN6P [2]: 9.89e-05 ± 2e-05 s⁻¹

AUAAAAGCGCCAGAACUACAGAAAUGUAGUUGACGAGGAGGAGGUUUAUCGAUUUUUAGGCGGAUGCUUCCAAA [A53U C58A C68U]
self-cleavage kobs at 640 uM GlcN6P [1]: 9.67e-05 ± 3.2e-05 s⁻¹ | self-cleavage kobs at 2500 uM GlcN6P [2]: 6.03e-05 ± 2e-05 s⁻¹

AUAAAAGCGCUAGACCUACAGAAAUGUAGUUGGCGAGGAGGAGUUUUACCGAAUUUUCGGCGGCUGCCUUCAAA [C11U A15C A33G G44U U49C A64C C70U]
self-cleavage kobs at 640 uM GlcN6P [1]: < 1e-05 s⁻¹ | self-cleavage kobs at 2500 uM GlcN6P [2]: < 1e-05 s⁻¹

AUAAAAGCGCCAGAACUACAGAAAUGUACUUGACGAGGAGGAGGUUUAUCGAAUUAUCGGCGGAUGGCUCCAAA [G29C U56A C67G]
self-cleavage kobs at 640 uM GlcN6P [1]: 4.47e-05 ± 2.1e-05 s⁻¹ | self-cleavage kobs at 2500 uM GlcN6P [2]: 7.09e-05 ± 2e-05 s⁻¹

AUAAAAGGGCCACAACUACAGAAAUGUAGUUGACGAGGAAGAGGUUUAUCGAAUUAUCUGCGGAUGCCUCCAAA [C8G G13C G40A U56A G59U]
self-cleavage kobs at 640 uM GlcN6P [1]: < 1e-05 s⁻¹

AUAAAAGCGCCAGAACUACAGAAAUGUAGUCGACGAGGAGGAGAUGUAUCGAAUUUUCAGCGGAUGCCUUCAAA [U31C G44A U46G G59A C70U]
self-cleavage kobs at 640 uM GlcN6P [1]: < 1e-05 s⁻¹ | self-cleavage kobs at 2500 uM GlcN6P [2]: < 1e-05 s⁻¹

AUAAAAGCGCCAGAACUACAGAAAUGUAGUUGACGAAGAGGAGGUUUAUCGAAUUUUCGGCGGGUGCCUCUAAA [G37A A64G C71U]
self-cleavage kobs at 640 uM GlcN6P [1]: 3.85e-05 ± 1.7e-05 s⁻¹

AUAAAAGCGCCAGAACUACAGAAAUGUAGUUGACGAGGAGGAGGUUUAUCGAAAUUACGGCGGAUGCCUCCAAA [U54A U57A]
self-cleavage kobs at 640 uM GlcN6P [1]: 4.89e-05 ± 1.3e-05 s⁻¹ | self-cleavage kobs at 2500 uM GlcN6P [2]: 0.000102 ± 2.8e-05 s⁻¹

AUAAAAGCGCCAGAACUACAGAAAUGUAGUUGACGAGGAGGAGGUUUAUCGAAGUUAGGGCGGAUGCAUCCAAA [U54G U57A C58G C68A]
self-cleavage kobs at 640 uM GlcN6P [1]: 0.000592 ± 0.00015 s⁻¹

AUAAAAGCGCCAGGCCUACAGAAAUGUAAUUGACGAGGAGGAGGUUCAUCGAAUUUUCGGCGGAUGACUCAAAA [A14G A15C G29A U47C C67A C71A]
self-cleavage kobs at 640 uM GlcN6P [1]: < 1e-05 s⁻¹

AUAAAGACGUCAGAACUACAGAAAUGUAGUUGACGAGGAGGAGCUUUAUCGAAUUUUCGCCGGAUGCCUCCAAA [A6G G7A C10U G44C G60C]
self-cleavage kobs at 640 uM GlcN6P [1]: < 1e-05 s⁻¹ | self-cleavage kobs at 2500 uM GlcN6P [2]: < 1e-05 s⁻¹

AUAAAAGCGCCACAACUACAGAAAUGUAGUUGAGCAGGAGGAGGUUUAUCGCAUUUUCGGCGGAUGCCUCCAAA [G13C C34G G35C A52C]
self-cleavage kobs at 640 uM GlcN6P [1]: < 1e-05 s⁻¹ | self-cleavage kobs at 2500 uM GlcN6P [2]: < 1e-05 s⁻¹

AUAAAAGCGCCAGAACUACAGAAAUGUAGUUGACGAGGAGGAGGGUUAUCGAACUUUCGGUGGAUGCCUCCAAA [U45G U54C C61U]
self-cleavage kobs at 640 uM GlcN6P [1]: < 1e-05 s⁻¹ | self-cleavage kobs at 2500 uM GlcN6P [2]: < 1e-05 s⁻¹

AUAAAAGCGCCAGAACUACAGAAAUGUAGUCGACGAGGAGGAGGUUUAUCGCAUUUUCGGCGGAUGCCUCAAAA [U31C A52C C71A]
self-cleavage kobs at 640 uM GlcN6P [1]: < 1e-05 s⁻¹

AUAAAAGCGCCAGAACUACAGAAAUGUAGUUGACGAGGAGGAGGUUAAUCGAAUUUUCGGCGGAUCCCUCCAAA [U47A G66C]
self-cleavage kobs at 640 uM GlcN6P [1]: 0.000329 ± 7.2e-05 s⁻¹ | self-cleavage kobs at 2500 uM GlcN6P [2]: 0.000448 ± 0.00013 s⁻¹

AUAAAAGCGCCACAACUACAGAAAUGUAGUGGACGAGGAGGAGGUUUAUCGAAUUUUCGGUGGAUGCCCCCAAA [G13C U31G C61U U69C]
self-cleavage kobs at 640 uM GlcN6P [1]: < 1e-05 s⁻¹

AUAAAAGCGCCAGAACUACAGAAAUGUAGUUGACAAGGAGGAGGUUAAUGGAAGUUUCGGCGGAUGCCUCCAAA [G35A U47A C50G U54G]
self-cleavage kobs at 640 uM GlcN6P [1]: 0.000171 ± 6.3e-05 s⁻¹ | self-cleavage kobs at 2500 uM GlcN6P [2]: 0.000152 ± 4.7e-05 s⁻¹

AUAAAAGCGCCCGAACUACAGAAAUGUAGUUGACGAGGAGGAGGUUUAUCGAAUUUUCGGCGGAUUCCUGCAAA [A12C G66U C70G]
self-cleavage kobs at 640 uM GlcN6P [1]: 7.67e-05 ± 2.5e-05 s⁻¹

AUAAAAGCGCCACAAGUACAGAAAUGUAGUUGACGAGGAGAAGGUUUAUCGAAUUUUCGGCGGAUGCCUCCAAA [G13C C16G G41A]
self-cleavage kobs at 640 uM GlcN6P [1]: < 1e-05 s⁻¹

AUAAAUGCGCCAGAACUACAGAAAUGUAGUUGACGAGGAGGAGGUUUAUGGAAUAUUCGGCGGAUGCCUCUAAA [A6U C50G U55A C71U]
self-cleavage kobs at 640 uM GlcN6P [1]: 0.00151 ± 0.00047 s⁻¹

AUAAAGGCGCCAGAACUACAGAAAUGUAGUUGACGAGGAGGAGGUUUAUCGAAUUUUCAGCGGAUGACUCCAAA [A6G G59A C67A]
self-cleavage kobs at 640 uM GlcN6P [1]: < 1e-05 s⁻¹ | self-cleavage kobs at 2500 uM GlcN6P [2]: < 1e-05 s⁻¹

AUAAAAGCGCCAGAACUACAGAAAUGUAGUUGACGAGGAGGAGGUUUAUCGAAUUUUGGGCACAUGCCUCAAAA [C58G G62A G63C C71A]
self-cleavage kobs at 640 uM GlcN6P [1]: 5.92e-05 ± 2.4e-05 s⁻¹

AUAAAAGCGCCAGAACUACAGAAAUGUAGUUAACGAGGAGGAGGUUUAUCGAAUUUGCGGCGGAUGCCGCCAAA [G32A U57G U69G]
self-cleavage kobs at 640 uM GlcN6P [1]: 0.000252 ± 0.00011 s⁻¹

AUAAAAGCGCCAGAACUACAGAAAUGUAGUUGACGAGGAGGACUUUUAUCGAAUUUUCGUCGGAUGCCUCCAAA [G43C G44U G60U]
self-cleavage kobs at 640 uM GlcN6P [1]: < 1e-05 s⁻¹
